Results taken from the supplement of paper PMC10567573.
± gives the standard deviation.

Assay: protein stability index of a GFP-peptide fusion (GPS, HEK-293T) (PSI 1-6); higher = more stable
[1] = treatment: DMSO, c terminus: a fixed tail appended
[2] = treatment: MLN4924 1 uM, 8 h, c terminus: a fixed tail appended
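Note: 24-mer peptide tiles fused after GFP, lentivirally expressed, FACS-sorted into six equal bins by GFP/DsRed ratio, decoded by Illumina sequencing, PSI is the read-weighted mean bin number.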

| Sequence | protein stability index [1] | protein stability index [2] | protein stability index (treatment: DMSO, c terminus: native) | protein stability index (treatment: MLN4924 1 uM, 8 h, c terminus: native) |
| --- | --- | --- | --- | --- |
| LQLQKGSDTEAQCEVMQEIVDQVL [INTS3] | 3.63 ± 0.35 | 3.93 ± 0.19 | – | – |
| SFTLEEEEEGGEEEEEAAMYEEEM [FAM50A] | 5.47 ± 0.43 | 5.36 ± 0.2 | – | – |
| GKHPKDKTEDENKQSFLDGGKGHH [TOR1AIP2] | 5.4 ± 0.34 | 5.55 ± 0.22 | – | – |
| PLLQSIHQLDFVQVKASSPVPATP [TRIM9] | 3.02 ± 0.18 | 3.2 ± 0.21 | – | – |
| VPSAVRCLQKRGSATSSSNTSLT [FSD1] | – | – | 4.34 ± 0.13 | 4.43 ± 0.082 |
| KECKDRGFEYDGKINAWDLYYYMT [NLN] | 2.52 ± 0.3 | 2.16 ± 0.29 | – | – |
| SVNSDCETYMSADDLRINLWHLAI [PPP2R2C] | 2.52 ± 0.54 | 2.29 ± 0.21 | – | – |
| PCIRNVTSPTRQHHVEREKDHSSS [BTBD10] | 5.23 ± 0.14 | 5.02 ± 0.42 | – | – |
| EKHPKKPEPQQKAPLVPPPPPPPP [SRPK2] | 5.42 ± 0.22 | 5.47 ± 0.09 | – | – |
| SSISHRFHKDCASRVNNASYCPHC [EHMT1] | 3.48 ± 0.67 | 4.11 ± 0.56 | – | – |
| AQQWRRARHNYNDLCPPIGRRAAT [GNAS] | 3.58 ± 0.3 | 3.6 ± 0.16 | – | – |
| DLDAWSILIREAQNQPIDKARKTY [CSTF3] | 2.8 ± 0.34 | 3.04 ± 0.66 | – | – |
| TSLQGLTGTPLVAGSPIRHENAVQ [ISL2] | 4.31 ± 0.33 | 4.36 ± 0.16 | – | – |
| LYFLFADAMQLNDKWQGLCWPMMD [CMTM3] | 3.07 ± 0.31 | 3.05 ± 0.47 | – | – |
| CMCTVGERLYVIGGNHFRGTSDYD [KLHL13] | 1.95 ± 0.17 | 2.38 ± 0.23 | – | – |
| FGVAGRSCQEVLRKGCLRFQLPER [DFFB] | 2.33 ± 0.24 | 2.25 ± 0.12 | – | – |
| DGVKESTESSNTTIEDEDVKARKQ [CAMK2D] | 5.59 ± 0.15 | 5.74 ± 0.09 | – | – |
| PLGLEADMWSIGVITYILLSGASP [DAPK3] | 2.52 ± 1.4 | 2.27 ± 0.23 | – | – |
| ILLESHMVMIRGNSGLKPKDNEFT [POMT2] | 2.21 ± 0.31 | 2.15 ± 0.21 | – | – |
| YLSCLEELMKCQIIYPRQQLLTLR [TRIP13] | 2.68 ± 0.68 | 2.69 ± 0.36 | – | – |
| NFIVNDSRKKPIWNVLMWTSLFLG [SOAT1] | 2.08 ± 0.14 | 2.2 ± 0.45 | – | – |
| RLGRCMRRLRDMVERPHSGLPGKV [KCNG1] | 2.4 ± 0.17 | 2.69 ± 0.24 | – | – |
| ALPPLRTRSKSDPVLHPSEERAAP [FAM189A2] | 5.64 ± 0.39 | 5.58 ± 0.2 | – | – |

| Sequence | protein stability index [1] | protein stability index [2] | protein stability index (treatment: DMSO, c terminus: native) | protein stability index (treatment: MLN4924 1 uM, 8 h, c terminus: native) |
| --- | --- | --- | --- | --- |
| TQHVNNWMKHNVADSQITTIGNLV [PTPRD] | 2.9 ± 0.44 | 3.12 ± 0.42 | – | – |
| FLPEKKDTGVFAVVNSHSLSLLGK [SLC22A15] | 2.57 ± 0.39 | 2.83 ± 0.52 | – | – |
| TDAFLDRPPTPLFIPAKTGKDVAT [RSPH3] | 4.58 ± 0.18 | 4.6 ± 0.22 | – | – |
| AGLENTVAETECRYALQLQQIQGL [KRT13] | 3.12 ± 0.24 | 2.91 ± 0.19 | – | – |
| AFTEYVHAYFRGHSPSCLARVTGE [FCHO1] | 2.1 ± 0.28 | 2.22 ± 0.25 | – | – |
| MSLFSLYMVQDQHECILPFVQVKG [M1AP] | 2.43 ± 0.54 | 2.14 ± 0.56 | – | – |
| DLSRLVNCLTGEGEDTRLSASEMK [CIB1] | 3.5 ± 0.38 | 3.86 ± 0.28 | – | – |
| LNLAMVYRYCCKLNKKLKSYSLSR [CDC14A] | 3.32 ± 0.69 | 3.04 ± 0.49 | – | – |
| QELVDYVNARQKQGIYEEYEDIRR [PTPN9] | 3.88 ± 0.24 | 3.86 ± 0.2 | – | – |
| GSSSLGFTSSPSPFSSSSPENVED [FCHO1] | 5.38 ± 0.2 | 5.29 ± 0.19 | – | – |
| RAWEVDWFSLASVIFLLLFAPFIV [DHCR7] | 2.43 ± 0.45 | 2.65 ± 0.57 | – | – |
| EPQGLGYWEAWRHHCQGKDLTEWV [SPACA3] | 3.85 ± 0.2 | 3.8 ± 0.45 | – | – |
| HGHYSMHCLHSAGHSQPDGAYSSA [DLX1] | 3.48 ± 0.27 | 3.47 ± 0.23 | – | – |
| EGGVLRGSKLEKGHLRGPEIRDWR [ZSWIM9] | 3.8 ± 0.2 | 4.02 ± 0.31 | – | – |
| QLLLGRLFRWPDLQHAVELKPLCG [SMAD6] | 2.12 ± 0.19 | 2.36 ± 0.17 | – | – |
| LNHVKSMWYPEIKHFCPRTPVILV [RHOBTB1] | 3.16 ± 0.47 | 3.1 ± 0.82 | – | – |
| VLMLLVALLFTGIAVLGIVMLKRI [SCAMP3] | 2.85 ± 0.63 | 3.02 ± 0.73 | – | – |
| WVSHTAAMTGTFPAYGMSPSLSTI [DVL3] | 2.62 ± 0.34 | 2.29 ± 0.26 | – | – |
| LDSNGAGEKSENNSSNSDIVHVEK [BCL2L13] | 5.57 ± 0.22 | 5.6 ± 0.13 | – | – |
| LFSIAPLIYGSMEMFPAAQQLYRH [JAGN1] | 2.55 ± 0.41 | 2.6 ± 0.57 | – | – |
| SSKVSGVLKKLAQSRRTALATSPI [YJU2B] | 2.94 ± 0.22 | 3 ± 0.26 | – | – |
| GFWQLPPPATQNTFGNSTLALGPG [PLAGL1] | 3.17 ± 0.15 | 3.29 ± 0.35 | – | – |
| PVYSVPQLLSAMGSLCSLWFGASV [SCNN1D] | 3.06 ± 0.056 | 3.37 ± 0.59 | – | – |

| Sequence | protein stability index [1] | protein stability index [2] | protein stability index (treatment: DMSO, c terminus: native) | protein stability index (treatment: MLN4924 1 uM, 8 h, c terminus: native) |
| --- | --- | --- | --- | --- |
| EVIVFGGCANNLLVHHRAAHSNEI [KLHDC2] | 2.13 ± 0.19 | 2.2 ± 0.26 | – | – |
| MQQSNLDPLSPMTASSLLSFAELF [FEM1C] | 2.83 ± 0.29 | 2.52 ± 0.42 | – | – |
| INAAFMLLFKDLIKLFACYNDGVI [SNAP91] | 2.9 ± 0.54 | 3.39 ± 0.65 | – | – |
| VEEGDSRFLANEVLQENYTHLPKA [WEE1] | 4.74 ± 0.2 | 4.81 ± 0.13 | – | – |
| TNGHGGEAAEGKSLGSALKPGEGR [TRIM29] | 5.08 ± 0.24 | 5.27 ± 0.33 | – | – |
| QELQARLQTVTREKEELLQLSIER [CCDC89] | 4.38 ± 0.35 | 4.32 ± 0.1 | – | – |
| QKEVAGFVLNRLQYAIISEAWRLV [CRYL1] | 3.43 ± 0.53 | 3.37 ± 0.27 | – | – |
| KRPARLHTKPSQAPAVEVAPAGAS [NOP53] | 4.77 ± 0.42 | 4.96 ± 0.19 | – | – |
| GPGDEVARGIAGEKFDIVKKWGIN [ARFIP2] | 4 ± 0.17 | 4.2 ± 0.046 | – | – |
| FPSSGRFWKLYIEAEVTILFYFFL [CSTF3] | 2.87 ± 0.66 | 2.35 ± 0.9 | – | – |
| TDHILESLYRDIRDIQDENQLLVA [STX11] | 3.22 ± 0.3 | 3.24 ± 0.39 | – | – |
| QPQDVDLALDSGASLLHLAVEAGQ [RIPK4] | 4.44 ± 0.51 | 4.58 ± 0.71 | – | – |
| IATYRSLLEGQDAKMAGIGIREAS [KRT15] | 3.09 ± 0.23 | 3.25 ± 0.1 | – | – |
| FDIQQGFDNPQVRFFLGDLCSRQD [NSDHL] | 2.94 ± 0.24 | 2.86 ± 0.31 | – | – |
| VSAQYLSEIEMAKAQRDYELKKAA [FLOT1] | 4.34 ± 0.22 | 4.54 ± 0.14 | – | – |
| VVFGLLLSYVMSGYRCFVCPVEYN [CDS2] | 3.55 ± 0.062 | 3.41 ± 0.31 | – | – |
| SEDWTMEERFRPLTFHGLILRSQL [CLCN6] | 2.32 ± 0.13 | 2.23 ± 0.18 | – | – |
| AFQHTPTSITLTASRVSKVNDKRR [KMT2E] | 3.74 ± 0.27 | 4.11 ± 0.47 | – | – |
| SIDKDEEFAGSSPQSSKSTVVKSL [FAN1] | 5.165 ± 0.042 | 5.27 ± 0.27 | – | – |
| PSIMPQKHWVYVKRGGNCPAPAPL [ZBTB22] | 2.85 ± 0.19 | 2.81 ± 0.32 | – | – |
| LVCHVMMGNLVMFRKDSVLNILIQ [INTS3] | 3.25 ± 0.47 | 3.33 ± 0.51 | – | – |
| LVMPLEEKLTKITRTGPSAWETKK [PCMTD2] | 3.79 ± 0.21 | 3.75 ± 0.23 | – | – |
| PAMQRYVKRLHEVGRTEPELLVAH [HMOX1] | 3.1 ± 0.29 | 3.37 ± 0.29 | – | – |

| Sequence | protein stability index [1] | protein stability index [2] | protein stability index (treatment: DMSO, c terminus: native) | protein stability index (treatment: MLN4924 1 uM, 8 h, c terminus: native) |
| --- | --- | --- | --- | --- |
| QGNKKEHVIHIIDFGLAKEYIDPE [CSNK1G1] | 2.5 ± 0.16 | 2.81 ± 0.24 | – | – |
| AFAPDFKELDENVEYEERESEFDI [RBBP5] | 5.38 ± 0.15 | 5.16 ± 0.41 | – | – |
| PLEYQFKSQIMSLSHSPQEDWVLL [TLE6] | 2.26 ± 0.29 | 2.37 ± 0.4 | – | – |
| VHPIIKRRQCRPEIRMWQTREKAK [PHTF1] | 3.15 ± 0.21 | 3.32 ± 0.13 | – | – |
| EPSRSASEADSEAGELRKPTQEEW [PPEF2] | 5.68 ± 0.33 | 5.81 ± 0.16 | – | – |
| DQYSYSSLVMGSQTESALSKKLRA [LCOR] | 3.63 ± 0.12 | 3.54 ± 0.27 | – | – |
| LWLRPETHTKEQILELVVLEQFVA [ZNF24] | 2.26 ± 0.61 | 2.35 ± 0.45 | – | – |
| PEEMATYLRYVRRLDFFEKPDYEY [CSNK1G1] | 2.34 ± 0.26 | 2.26 ± 0.55 | – | – |
| DWVPVESLLRPLNSLAALDLSGIQ [ZER1] | 2.42 ± 0.61 | 2.41 ± 0.49 | – | – |
| PSPQLDTQQEIKLCQKSNDISIHH [WDR41] | 4.41 ± 0.51 | 4.49 ± 0.05 | – | – |
| WLLTKIDHWNNEKERILLVTDKTL [TPRG1] | 2.11 ± 0.41 | 2.16 ± 0.28 | – | – |
| QCDKRFRWSSDLNKHLTTHQGIKP [ZNF75A] | 3.02 ± 0.12 | 2.97 ± 0.24 | – | – |
| NRDSYFYAAIVAVVAVHVVLALFV [VMA21] | 2.3 ± 0.16 | 2 ± 0.2 | – | – |
| GTPGYLSPEVLRKDPYGKPVDLWA [CAMK2A] | 3.29 ± 0.39 | 3.16 ± 0.29 | – | – |
| CMSIVTSMTAGVSEREANDALNAY [INTS3] | 3.41 ± 0.3 | 3.49 ± 0.21 | – | – |
| TKRVRQLLDLDPEVECLKANTNEV [GOLPH3] | 4.29 ± 0.32 | 4.62 ± 0.22 | – | – |
| AILVKVQLDALPFFVITMIKIVLI [SLC29A1] | 3.23 ± 0.22 | 3.23 ± 0.37 | – | – |
| MKIKQDRASRTYELQNQLAACTRA [FSD1] | 3.52 ± 0.12 | 3.62 ± 0.38 | – | – |
| GLRLCRPKAKAKAKAKAKDQTKAQ [RPL29] | 3.91 ± 0.23 | 4.16 ± 0.34 | – | – |
| GETYCEEHGEKIYFFCENDAEFLC [TRIM15] | 3.22 ± 0.26 | 3.33 ± 0.44 | – | – |
